{"source": "the supplement of paper PMC11908140", "parents": {"B1": {"name": "library; numbered along this chain (parent)", "chain": "MRKPRAAVGSGHRKQAASQEGRQKHAKNNSQAKPSACDGLARQPEEVVLQASVSSYHLFRDVAEVTAFRGSLLSWYDQEKRDLPWRRRAEDEMDLDRRAYAVWVSEVMLQQTQVATVINYYTGWMQKWPTLQDLASASLEEVNQLWAGLGYYSRGRRLQEGARKVVEELGGHMPRTAETLQQLLPGVGRYTAGAIASIAFGQATGVVDGNVARVLCRVRAIGADPSSTLVSQQLWGLAQQLVDPARPGDFNQAAMELGATVCTPQRPLCSQCPVESLCRARQRVEQEQLLASGSLSGSPDVEECAPNTGQCHLCLPPSEPWDQTLGVVNFPRKASRKPPREESSATCVLEQPGALGAQILLVQRPNSGLLAGLWEFPSVTWEPSEQLQRKALLQELQRWAGPLPATHLRHLGEVVHTFSHIKLTYQVYGLALEGQTPVTTVPPGARWLTQEEFHTAAVSTAMKKVFRVYQGQQPGTCMGSKRSQVSSPCSRKKPRMGQQVLDNFFRSHISTDAHSLNSAAQ"}}, "data": [{"variants_of": "B1", "assay": "8OG:A repair function score (normalized; synonymous = 0, nonsense = -1) (normalized log-likelihood score); higher = more repair activity (WT-like)", "settings": "with 8OG:A DNA repair reporter (GFP) in HEK-293 MUTYH KO cells", "procedure,_shortened": "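Lentiviral MUTYH cDNA NNN codon-scan libraries in HEK-293 MUTYH knockout cells (10 pg/ml doxycycline) were co-transfected with an 8OG:A GFP repair reporter plus mCherry. At 72 h, viable mCherry+ cells were sorted into GFP+ (repair) and GFP− bins, three replicates per tile, then tile amplicons were sequenced. Per-tile Rosace fitness scores became a normalized repair function score anchored on synonymous and nonsense distributions. Synonymous medians were set to 0 and nonsense to -1; variants under 300 counts per million at the start were removed.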", "values": [{"variant": "V458C", "8OG:A repair function score": -0.27}, {"variant": "P244K", "8OG:A repair function score": 0.065}, {"variant": "A305S", "8OG:A repair function score": -0.019}, {"variant": "A305D", "8OG:A repair function score": -0.0865}, {"variant": "D61C", "8OG:A repair function score": -0.0189}, {"variant": "Q233M", "8OG:A repair function score": 0.177}, {"variant": "A400T", "8OG:A repair function score": -0.0197}, {"variant": "T380H", "8OG:A repair function score": -0.465}, {"variant": "L215E", "8OG:A repair function score": -0.98}, {"variant": "L215P", "8OG:A repair function score": -1.03}, {"variant": "L403K", "8OG:A repair function score": -0.295}, {"variant": "A457T", "8OG:A repair function score": -0.533}, {"variant": "E285G", "8OG:A repair function score": -0.0139}, {"variant": "C262I", "8OG:A repair function score": -1.12}, {"variant": "R482V", "8OG:A repair function score": 0.00231}, {"variant": "L234Q", "8OG:A repair function score": -0.724}, {"variant": "Y425E", "8OG:A repair function score": -0.544}, {"variant": "Y425L", "8OG:A repair function score": -0.213}, {"variant": "L184C", "8OG:A repair function score": -0.317}, {"variant": "E106I", "8OG:A repair function score": -1.13}, {"variant": "Y121S", "8OG:A repair function score": -0.866}, {"variant": "W146F", "8OG:A repair function score": -0.152}, {"variant": "G475E", "8OG:A repair function score": -0.00575}, {"variant": "I359P", "8OG:A repair function score": -1.08}, {"variant": "V465W", "8OG:A repair function score": -1.07}, {"variant": "H454R", "8OG:A repair function score": -0.00791}, {"variant": "F505Y", "8OG:A repair function score": 0.00392}, {"variant": "A89S", "8OG:A repair function score": 0.00694}, {"variant": "Q265S", "8OG:A repair function score": -0.0301}, {"variant": "W374N", "8OG:A repair function score": -0.645}, {"variant": "D502G", "8OG:A repair function score": -0.00456}, {"variant": "A354T", "8OG:A repair function score": -0.0601}, {"variant": "R88D", "8OG:A repair function score": -0.0653}, {"variant": "V53P", "8OG:A repair function score": -0.254}, {"variant": "Q450K", "8OG:A repair function score": 0.354}, {"variant": "Q450W", "8OG:A repair function score": -0.011}, {"variant": "E395A", "8OG:A repair function score": -0.162}, {"variant": "C489V", "8OG:A repair function score": -0.0255}, {"variant": "S487P", "8OG:A repair function score": -0.0175}, {"variant": "A445Q", "8OG:A repair function score": -0.575}, {"variant": "Q43W", "8OG:A repair function score": -0.0384}, {"variant": "Q43K", "8OG:A repair function score": 0.0479}, {"variant": "P404K", "8OG:A repair function score": 0.298}, {"variant": "G161V", "8OG:A repair function score": -0.579}, {"variant": "L139I", "8OG:A repair function score": 0.139}, {"variant": "W103K", "8OG:A repair function score": -1.37}, {"variant": "R189A", "8OG:A repair function score": -0.136}, {"variant": "S136Q", "8OG:A repair function score": -0.0528}, {"variant": "S136T", "8OG:A repair function score": 0.078}, {"variant": "V379G", "8OG:A repair function score": -0.37}, {"variant": "S335D", "8OG:A repair function score": -0.0695}, {"variant": "S335A", "8OG:A repair function score": 0.0331}, {"variant": "F200A", "8OG:A repair function score": -0.576}, {"variant": "M496G", "8OG:A repair function score": -0.00643}, {"variant": "P402G", "8OG:A repair function score": -0.274}, {"variant": "S419W", "8OG:A repair function score": -0.75}, {"variant": "Q351I", "8OG:A repair function score": -0.0185}, {"variant": "Q499E", "8OG:A repair function score": 0.0257}, {"variant": "A238G", "8OG:A repair function score": -0.603}, {"variant": "W447Y", "8OG:A repair function score": -0.455}, {"variant": "K422Y", "8OG:A repair function score": -0.355}, {"variant": "C272D", "8OG:A repair function score": -1.28}, {"variant": "C278V", "8OG:A repair function score": -1.16}, {"variant": "C278L", "8OG:A repair function score": -1.1}, {"variant": "Y428H", "8OG:A repair function score": -0.753}, {"variant": "L131A", "8OG:A repair function score": -0.104}, {"variant": "W399P", "8OG:A repair function score": -0.724}, {"variant": "Y100D", "8OG:A repair function score": -1.79}, {"variant": "Q50E", "8OG:A repair function score": 0.0122}, {"variant": "H514W", "8OG:A repair function score": -0.03}, {"variant": "A147C", "8OG:A repair function score": -0.226}, {"variant": "E79W", "8OG:A repair function score": -0.0018}, {"variant": "L241G", "8OG:A repair function score": -0.827}, {"variant": "S197A", "8OG:A repair function score": -0.271}, {"variant": "V415S", "8OG:A repair function score": 0.0289}, {"variant": "V415P", "8OG:A repair function score": -0.0885}, {"variant": "V415D", "8OG:A repair function score": -0.364}, {"variant": "R446H", "8OG:A repair function score": -0.177}, {"variant": "Q240R", "8OG:A repair function score": -0.97}, {"variant": "Q240G", "8OG:A repair function score": -1}, {"variant": "D208E", "8OG:A repair function score": -0.991}, {"variant": "W235E", "8OG:A repair function score": -0.204}, {"variant": "W235N", "8OG:A repair function score": -0.368}]}]}
